Results: patent publication US5019384A, “Immunonodulating compositions and their use” (Massachusetts Institute of Technology, priority 1989, dated 1991)

Key:
I-A^k = target: T1, I-A^k (Mus musculus, UniProt P01910+P06343); assay: Inhibition of binding of 125I-labeled Lysozyme (Hen) (P46-61) to I-A^k; conditions: for Competition with the lysozyme-derived peptide for binding to I-A^k (in words): up to 2500 μM
T1 construct: endogenous in cells
Text: (§1) Ia-molecules were purifed from Nonidet P-40 (NP-40) lysates of A20 (H2^d) or AKTB-1b (H2^k) cells by affinity chromatography using the following monoclonal antibodies: MK-D6 (I-A^d -specific), 10-3-6 (I-A^k -specific) specific) or 14-4-4 (I-E^d/k -specific) coupled to Sepharose 4B beads (Pharmacia Fine Chemicals, Sweden).
(§2) A gel filtration assay was used for determining the degree of association between immunogenic peptides and Ia. The assay is described in: Buus, S. et al., Proceeding of the National Academy of Sciences, U.S.A. (1986) 83:3968, the teaching of which is incorporated herein by reference. Briefly, 40 μmole of purified Ia in 1 percent NP-40/PBS was mixed with 0.2 μmole of ^125 I-labeled peptide (approximately 200,000 cpm for each experiment) and incubated for 48 hours at room temperature to allow for formation of the Ia-peptide complex. The Ia-peptide complexes were separated from free peptide by gel filtration and the percentage of peptide bound to Ia was calculated as the ratio of the ^125 I-labeled peptide in the void volume to the total ^125 I-labeled peptide recovered.
For the inhibition assay a dose-range of unlabeled cI P12-26 peptide was added to the incubation mixture of Ia and ^125 I-labeled peptide ([…] μM). The degree of association between Ia and labeled peptide was determined by gel filtration as described in Table 1. The percentage of peptide bound in the absence of inhibitors is 10.6 percent for ovalbumin (323 to 339)/I-A^d; 6.5 percent for myoglobulin 132 to 153)/I-E^d; 21.5 percent for lysozyme (46 to 61)/I-A^k; 2.5 percent for cytochrome C (88 to 104)/I-E^k. The concentration of inhibitory peptide required to obtain a 50 percent inhibition of binding was calculated. Each experiment was repeated three times.

I-A^d = target: T2, I-A^d (Mus musculus, UniProt P01921+P04228); assay: Gel filtration binding of 125I-labeled peptide to purified Ia (I-A^d)
T2 construct: endogenous in cells
T2 sequence (P04228 24-256): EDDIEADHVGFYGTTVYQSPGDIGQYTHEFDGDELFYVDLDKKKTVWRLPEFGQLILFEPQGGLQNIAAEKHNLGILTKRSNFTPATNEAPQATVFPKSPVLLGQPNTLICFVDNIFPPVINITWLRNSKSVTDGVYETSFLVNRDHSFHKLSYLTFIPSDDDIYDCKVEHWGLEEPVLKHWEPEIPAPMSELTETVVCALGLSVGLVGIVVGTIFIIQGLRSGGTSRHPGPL
T2 sequence (P01921 28-265): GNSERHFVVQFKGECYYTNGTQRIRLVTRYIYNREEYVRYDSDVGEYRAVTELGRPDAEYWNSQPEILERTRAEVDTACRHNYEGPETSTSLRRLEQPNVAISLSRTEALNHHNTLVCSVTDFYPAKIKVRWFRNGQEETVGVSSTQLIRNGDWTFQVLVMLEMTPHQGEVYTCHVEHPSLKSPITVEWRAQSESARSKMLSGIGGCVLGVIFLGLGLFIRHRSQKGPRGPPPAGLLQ
Text: The peptide P12-26 was modified by the addition of a tyrosine residue to the N-terminus to serve as an acceptor for the ^125 I.
as §1, §2

I-E^d [1] = target: T3, I-E^d (Mus musculus, UniProt P01904+P01915); assay: Inhibition of binding of 125I-labeled Myoglobin (P132-153) to I-E^d; conditions: 125I Myoglobin (P132-153) bound to I-E^d; read-out: Concentration (μM) of P12-26 Required for 50 percent Inhibition
T3 construct: endogenous in cells
T3 sequence (P01904 26-255): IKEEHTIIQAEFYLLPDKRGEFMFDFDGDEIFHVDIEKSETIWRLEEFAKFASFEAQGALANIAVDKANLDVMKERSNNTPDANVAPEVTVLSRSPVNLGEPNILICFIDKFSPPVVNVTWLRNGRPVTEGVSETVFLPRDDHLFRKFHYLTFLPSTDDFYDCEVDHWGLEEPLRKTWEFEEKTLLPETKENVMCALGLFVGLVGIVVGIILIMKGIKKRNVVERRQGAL
T3 sequence (P01915 27-264 limits assumed): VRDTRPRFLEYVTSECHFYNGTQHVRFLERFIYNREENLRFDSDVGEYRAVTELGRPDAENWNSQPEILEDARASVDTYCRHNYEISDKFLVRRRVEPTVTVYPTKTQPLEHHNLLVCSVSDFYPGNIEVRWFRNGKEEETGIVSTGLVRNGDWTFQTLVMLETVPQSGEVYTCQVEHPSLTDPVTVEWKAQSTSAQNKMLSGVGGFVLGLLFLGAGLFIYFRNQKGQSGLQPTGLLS
Text: as §1
A gel filtration assay was used for determining the degree of association between immunogenic peptides and Ia. The assay is described in: Buus, S. et al., Proceeding of the National Academy of Sciences, U.S.A. (1986) 83:3968, the teaching of which is incorporated herein by reference. […] The Ia-peptide complexes were separated from free peptide by gel filtration and the percentage of peptide bound to Ia was calculated as the ratio of the ^125 I-labeled peptide in the void volume to the total ^125 I-labeled peptide recovered.
For the inhibition assay a dose-range of unlabeled cI P12-26 peptide was added to the incubation mixture of Ia and ^125 I-labeled peptide (600, 120, 24, ad 48 μM). The degree of association between Ia and labeled peptide was determined by gel filtration as described in Table 1. […] The concentration of inhibitory peptide required to obtain a 50 percent inhibition of binding was calculated. […]

I-E^d [2] = assay: Restriction of peptide-specific T-cell hybrids assayed on L cells expressing I-A^d or I-E^d; type: cell-based, Balb/c mouse; conditions: P12-26: of more than 300 hybrids; myoglobin (P135-147): of 80 hybrids
Text: That is, they could be stimulated by antigen in the presence of L cells expressing I-A^d, but could not be shown to be stimulated by antigen in the presence of L cells expressing I-E^d.
The proliferation of these same cultures was not inhibited (75,000 cpm) by a monoclonal antibody, 34-1-4S, which is specific for I-E^d and which inhibits the stimulation of a hemocyanin specific, I-E^d resticted T-cell hybridoma.

P12-26: derived from the cI protein of bacteriophage lambda (residues 12-26)
IC50 (I-A^k; 125I Lysozyme (Hen) (P46-61) bound to I-A^k, read-out: Concentration (μM) of P12-26 Required for 50 percent Inhibition): > 2500 µM
Competition with the lysozyme-derived peptide for binding to I-A^k (in words) (I-A^k): is not observed
Competition with the lysozyme-derived peptide for binding to I-A^k (in words) (I-A^k; listed as P1226): No inhibition of binding was detected
Binding to the I-A^d molecule (in words) (I-A^d): able to bind to both molecules as expected
IC50 (I-E^d [1]): 4 µM
Number of peptide-specific hybrids restricted by I-E^d (I-E^d [2]): none
